Earlier results as cited in article PMC3461832.

Assays:
[1] = target: fibrinogen Bβ chain 6-20 (Homo sapiens) (UniProt P02675)
[2] = target: fibrinogen Bβ chain peptide β1-25 1-25 (Homo sapiens) (UniProt P02675)

Sequence of UniProt P02675 (P02675 1-25): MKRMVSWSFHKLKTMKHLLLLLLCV

SdrG (from UniProt Q9KI13)
Kd [1]: 90 nM
Kd [2]: 140 nM
